Test results taken from patent US20260049138A1 (Chugai, published 2026).
Numbering of substitutions follows the chain as printed. Names and notes keep the numbering of the source.

Molecular target: T1, CD3ε homodimer protein (human, UniProt P07766 23-126, limits assumed)
T1 construct: also called CD3 (CD3ε)
Experiment: SPR Biacore T200, CD3ε homodimer on chip;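 note: Light-chain single-residue variant antibodies injected over amine-coupled CD3ε homodimer on a CM4 chip at 25 °C, bound amount divided by that of the GLS3000-containing antibody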

T1 sequence (P07766 23-126 limits assumed): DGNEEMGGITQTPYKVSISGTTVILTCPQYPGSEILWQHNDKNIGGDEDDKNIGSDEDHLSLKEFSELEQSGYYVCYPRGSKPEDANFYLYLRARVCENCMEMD

B1: GLS3000 Q90A one-arm antibody (antibody, human IgG1, kappa, L234A L235A, N297A, name in Kabat numbering)
heavy: QVQLVESGGGVVQPGRSLRLSCAASGFTFSNAWMHWVRQAPGKGLEWVAQIKAKSNNYATYYAESVKGRFTISRDDSKNSLYLQMNSLKTEDTAVYYCRYVHYGAYYGVDAWGQGTTVTVSSASTKGPSVFPLAPSSKSTSGGTAALGCLVKDYFPEPVTVSWNSGALTSGVHTFPAVLQSSGLYSLSSVVTVPSSSLGTQTYICNVNHKPSNTKVDKKVEPKSCDKTHTCPPCPAPEAAGGPSVFLFPPKPKDTLMISRTPEVTCVVVDVSHEDPEVKFNWYVDGVEVHNAKTKPREEQYASTYRVVSVLTVLHQDWLNGKEYKCKVSNKALPAPIEKTISKAKGQPREPQVYTLPPSRCELTKNQVSLSCAVKGFYPSDIAVEWESNGQPENNYKTTPPVLDSDGSFFLVSKLTVDKSRWQQGNVFSCSVMHEALHNHYTQKSLSLSPDYKDDDDK
chain: EPKSSDKTHTCPPCPAPELLGGPSVFLFPPKPKDTLMISRTPEVTCVVVDVSHEDPEVKFNWYVDGVEVHNAKTKPREEQYNSTYRVVSVLTVLHQDWLNGKEYKCKVSNKALPAPIEKTISKAKGQPREPQVCTLPPSRDELTKNQVSLWCLVKGFYPSDIAVEWESNGQPENNYKTTPPVLDSDGSFFLYSKLTVDKSRWQQGNVFSCSVMHEALHNRYTQKSLSLSP
light: DIVMTQSPLSLPVTPGEPASISCRSSQSLVHSNRNTYLHWYQQKPGQAPRLLIYKVSNRFSGVPDRFSGSGSGTDFTLKISRVEAEDVGVYYCGAGTQVPYTFGQGTKLEIKRTVAAPSVFIFPPSDEQLKSGTASVVCLLNNFYPREAKVQWKVDNALQSGNSQESVTEQDSKDSTYSLSSTLTLSKADYEKHKVYACEVTHQGLSSPVTKSFNRGEC
- ratio of amount bound vs unaltered GLS3000: 0.5

B2: GLS3000 Q93S one-arm antibody (antibody, human IgG1, kappa, L234A L235A, N297A, name in Kabat numbering)
heavy: B1 heavy
chain: B1 chain
light: B1 light with A95Q, Q98S
- ratio of amount bound vs unaltered GLS3000: 0.96

B3: GLS3000 R29V one-arm antibody (antibody, human IgG1, kappa, L234A L235A, N297A, name in Kabat numbering)
heavy: B1 heavy
chain: B1 chain
light: B1 light with R34V, A95Q
- ratio of amount bound vs unaltered GLS3000: 0.34

B4: GLS3000 Q90S one-arm antibody (antibody, human IgG1, kappa, L234A L235A, N297A, name in Kabat numbering)
heavy: B1 heavy
chain: B1 chain
light: B1 light with A95S
- ratio of amount bound vs unaltered GLS3000: 0.73

B5: GLS3000 R54A one-arm antibody (antibody, human IgG1, kappa, L234A L235A, N297A, name in Kabat numbering)
heavy: B1 heavy
chain: B1 chain
light: B1 light with R59A, A95Q
- ratio of amount bound vs unaltered GLS3000: 0.69

B6: GLS3000 R29T one-arm antibody (antibody, human IgG1, kappa, L234A L235A, N297A, name in Kabat numbering)
heavy: B1 heavy
chain: B1 chain
light: B1 light with R34T, A95Q
- ratio of amount bound vs unaltered GLS3000: 0.63

B7: GLS3000 Q93D one-arm antibody (antibody, human IgG1, kappa, L234A L235A, N297A, name in Kabat numbering)
heavy: B1 heavy
chain: B1 chain
light: B1 light with A95Q, Q98D
- ratio of amount bound vs unaltered GLS3000: 0.72

B8: GLS3000 Q90P one-arm antibody (antibody, human IgG1, kappa, L234A L235A, N297A, name in Kabat numbering)
heavy: B1 heavy
chain: B1 chain
light: B1 light with A95P
- ratio of amount bound vs unaltered GLS3000: 0.27

B9: GLS3000 Q90Y one-arm antibody (antibody, human IgG1, kappa, L234A L235A, N297A, name in Kabat numbering)
heavy: B1 heavy
chain: B1 chain
light: B1 light with A95Y
- ratio of amount bound vs unaltered GLS3000: 0.17

B10: GLS3000 Q93R one-arm antibody (antibody, human IgG1, kappa, L234A L235A, N297A, name in Kabat numbering)
heavy: B1 heavy
chain: B1 chain
light: B1 light with A95Q, Q98R
- ratio of amount bound vs unaltered GLS3000: 1.13

B11: GLS3000 R24S one-arm antibody (antibody, human IgG1, kappa, L234A L235A, N297A, name in Kabat numbering)
heavy: B1 heavy
chain: B1 chain
light: B1 light with R24S, A95Q
- ratio of amount bound vs unaltered GLS3000: 0.89

B12: GLS3000 Q93P one-arm antibody (antibody, human IgG1, kappa, L234A L235A, N297A, name in Kabat numbering)
heavy: B1 heavy
chain: B1 chain
light: B1 light with A95Q, Q98P
- ratio of amount bound vs unaltered GLS3000: 0.25

B13: GLS3000 Q93Y one-arm antibody (antibody, human IgG1, kappa, L234A L235A, N297A, name in Kabat numbering)
heavy: B1 heavy
chain: B1 chain
light: B1 light with A95Q, Q98Y
- ratio of amount bound vs unaltered GLS3000: 0.87

B14: GLS3000 Q90E one-arm antibody (antibody, human IgG1, kappa, L234A L235A, N297A, name in Kabat numbering)
heavy: B1 heavy
chain: B1 chain
light: B1 light with A95E
- ratio of amount bound vs unaltered GLS3000: 0.86

B15: GLS3000 R29A one-arm antibody (antibody, human IgG1, kappa, L234A L235A, N297A, name in Kabat numbering)
heavy: B1 heavy
chain: B1 chain
light: B1 light with R34A, A95Q
- ratio of amount bound vs unaltered GLS3000: 0.63

B16: GLS3000 R29I one-arm antibody (antibody, human IgG1, kappa, L234A L235A, N297A, name in Kabat numbering)
heavy: B1 heavy
chain: B1 chain
light: B1 light with R34I, A95Q
- ratio of amount bound vs unaltered GLS3000: 0.37

B17: GLS3000 R29G one-arm antibody (antibody, human IgG1, kappa, L234A L235A, N297A, name in Kabat numbering)
heavy: B1 heavy
chain: B1 chain
light: B1 light with R34G, A95Q
- ratio of amount bound vs unaltered GLS3000: 0.67

B18: GLS3000 R24T one-arm antibody (antibody, human IgG1, kappa, L234A L235A, N297A, name in Kabat numbering)
heavy: B1 heavy
chain: B1 chain
light: B1 light with R24T, A95Q
- ratio of amount bound vs unaltered GLS3000: 0.88

B19: GLS3000 R24D one-arm antibody (antibody, human IgG1, kappa, L234A L235A, N297A, name in Kabat numbering)
heavy: B1 heavy
chain: B1 chain
light: B1 light with R24D, A95Q
- ratio of amount bound vs unaltered GLS3000: 0.75

B20: GLS3000 R24Q one-arm antibody (antibody, human IgG1, kappa, L234A L235A, N297A, name in Kabat numbering)
heavy: B1 heavy
chain: B1 chain
light: B1 light with R24Q, A95Q
- ratio of amount bound vs unaltered GLS3000: 0.9

B21: GLS3000 Q93A one-arm antibody (antibody, human IgG1, kappa, L234A L235A, N297A, name in Kabat numbering)
heavy: B1 heavy
chain: B1 chain
light: B1 light with A95Q, Q98A
- ratio of amount bound vs unaltered GLS3000: 0.85

B22: GLS3000 R24P one-arm antibody (antibody, human IgG1, kappa, L234A L235A, N297A, name in Kabat numbering)
heavy: B1 heavy
chain: B1 chain
light: B1 light with R24P, A95Q
- ratio of amount bound vs unaltered GLS3000: 0.7

B23: GLS3000 R24E one-arm antibody (antibody, human IgG1, kappa, L234A L235A, N297A, name in Kabat numbering)
heavy: B1 heavy
chain: B1 chain
light: B1 light with R24E, A95Q
- ratio of amount bound vs unaltered GLS3000: 0.83

B24: GLS3000 R29Y one-arm antibody (antibody, human IgG1, kappa, L234A L235A, N297A, name in Kabat numbering)
heavy: B1 heavy
chain: B1 chain
light: B1 light with R34Y, A95Q
- ratio of amount bound vs unaltered GLS3000: 0.69

B25: GLS3000 R24G one-arm antibody (antibody, human IgG1, kappa, L234A L235A, N297A, name in Kabat numbering)
heavy: B1 heavy
chain: B1 chain
light: B1 light with R24G, A95Q
- ratio of amount bound vs unaltered GLS3000: 0.89

B26: GLS3000 R29D one-arm antibody (antibody, human IgG1, kappa, L234A L235A, N297A, name in Kabat numbering)
heavy: B1 heavy
chain: B1 chain
light: B1 light with R34D, A95Q
- ratio of amount bound vs unaltered GLS3000: 0.41

B27: GLS3000 R24Y one-arm antibody (antibody, human IgG1, kappa, L234A L235A, N297A, name in Kabat numbering)
heavy: B1 heavy
chain: B1 chain
light: B1 light with R24Y, A95Q
- ratio of amount bound vs unaltered GLS3000: 0.87

B28: GLS3000 Q93E one-arm antibody (antibody, human IgG1, kappa, L234A L235A, N297A, name in Kabat numbering)
heavy: B1 heavy
chain: B1 chain
light: B1 light with A95Q, Q98E
- ratio of amount bound vs unaltered GLS3000: 0.75

B29: GLS3000 R24A one-arm antibody (antibody, human IgG1, kappa, L234A L235A, N297A, name in Kabat numbering)
heavy: B1 heavy
chain: B1 chain
light: B1 light with R24A, A95Q
- ratio of amount bound vs unaltered GLS3000: 0.86

B30: GLS3000 R54D one-arm antibody (antibody, human IgG1, kappa, L234A L235A, N297A, name in Kabat numbering)
heavy: B1 heavy
chain: B1 chain
light: B1 light with R59D, A95Q
- ratio of amount bound vs unaltered GLS3000: 0.36

B31: GLS3000 R29P one-arm antibody (antibody, human IgG1, kappa, L234A L235A, N297A, name in Kabat numbering)
heavy: B1 heavy
chain: B1 chain
light: B1 light with R34P, A95Q
- ratio of amount bound vs unaltered GLS3000: 0.31

B32: GLS3000 R29L one-arm antibody (antibody, human IgG1, kappa, L234A L235A, N297A, name in Kabat numbering)
heavy: B1 heavy
chain: B1 chain
light: B1 light with R34L, A95Q
- ratio of amount bound vs unaltered GLS3000: 0.56

B33: GLS3000 Q90D one-arm antibody (antibody, human IgG1, kappa, L234A L235A, N297A, name in Kabat numbering)
heavy: B1 heavy
chain: B1 chain
light: B1 light with A95D
- ratio of amount bound vs unaltered GLS3000: 0.19

B34: GLS3000 R29S one-arm antibody (antibody, human IgG1, kappa, L234A L235A, N297A, name in Kabat numbering)
heavy: B1 heavy
chain: B1 chain
light: B1 light with R34S, A95Q
- ratio of amount bound vs unaltered GLS3000: 0.68
